Results as given in IntAct's records for PubMed 18366438.

B1: DNA primase (Geobacillus stearothermophilus), Q9X4D0 (parent)
chain: MGHRIPEETIEAIRRGVDIVDVIGEYVQLKRQGRNYFGLCPFHGEKTPSFSVSPEKQIFHCFGCGAGGNAFTFLMDIEGIPFVEAAKRLAAKAGVDLSVYELDVRGRDDGQTDEAKAMTEAHALLKRFYHHLLVHTKEGQAALDYLQARGWTKETIDRFEIGYAPDAPDAAAKLLESHSFSLPVMEKAGLLTKKEDGRYVGRFRNRIMFPIHDHRGETVGFSGRLLGEGHPKYVNSPETPVFRKGAILYHFHAARVPIRKRQEALLVEGFADVISAAQAGIDYAIATMGTSLTEEQARILRPCDTITICYDGDRAGIEAAWAAAEQLSALGCRVKVASLPNGLDPDEYIRVYGGERFAGEAGCRRPLVAFKMAYLRRGKNLQHEGERLRYIDEALREIGKLSSPVEQDYYLRQLAEEFSLSLSALHEQLSRSQRERTKPREAPDGETARPMLAKKLLPAFQNAERLLLAHMMRSRDVALVVQERIGGRFNIEEHRALAAYIYAFYEEGHEADPGALISRIPGELQPLASDVSLLLIADDVSEQELEDYIRHVLNRPKWLMLKVKEQEKTEAERRKDFLTAARIAKEMIEMKKMLSSS
partner: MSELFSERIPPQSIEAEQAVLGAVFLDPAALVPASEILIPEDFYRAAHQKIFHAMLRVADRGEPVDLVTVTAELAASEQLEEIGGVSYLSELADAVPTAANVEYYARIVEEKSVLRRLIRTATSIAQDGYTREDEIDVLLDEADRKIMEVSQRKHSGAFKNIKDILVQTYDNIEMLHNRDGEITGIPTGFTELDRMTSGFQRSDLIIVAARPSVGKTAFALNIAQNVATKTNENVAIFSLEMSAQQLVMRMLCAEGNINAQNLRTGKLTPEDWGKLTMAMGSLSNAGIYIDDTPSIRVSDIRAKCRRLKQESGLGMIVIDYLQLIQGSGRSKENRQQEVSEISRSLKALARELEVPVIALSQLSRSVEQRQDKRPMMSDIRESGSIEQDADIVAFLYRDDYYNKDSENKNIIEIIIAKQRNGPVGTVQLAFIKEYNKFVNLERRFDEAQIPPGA

Variants of: B1
Details: with dnab_geose dnaB

| effect of a mutation on the interaction | Variant |
| --- | --- |
| decreasing interaction strength | P458A |

Variants of: B1
Details: with dnab_geose dnaB
Remark: another data set of the same source

| effect of a mutation on the interaction | Variant |
| --- | --- |
| decreasing interaction strength | Y548A |
